In PMC3524116:

Biological target: Recombinant His6-tagged UVI31+ protein from C. reinhardtii (C. reinhardtii)
Test: SEC; gel filtration on a Sephadex G75 column in 50 mM sodium phosphate (pH 7.6), 50 mM NaCl; major peak at 87 ml (monomer), small hump at 68-75 ml (dimer)

stoichiometry N: 2
Substance: Recombinant His6-tagged UVI31+ protein from C. reinhardtii (natural protein)
